One protein from article PMC4562626 can be followed below.

This series is described as follows: TIRF total EGFP fluorescence in adhered membrane. The note with it: glycan lost; control: wild type Kv1.1-EGFP.

B1: Kv1.1: N207Q (protein)
parent chain: MTVMSGENADEASAAPGHPQDGSYPRQADHDDHECCERVVINISGLRFETQLKTLAQFPNTLLGNPKKRMRYFDPLRNEYFFDRNRPSFDAILYYYQSGGRLRRPVNVPLDMFSEEIKFYELGEEAMEKFREDEGFIKEEERPLPEKEYQRQVWLLFEYPESSGPARVIAIVSVMVILISIVIFCLETLPELKDDKDFTGTIHRIDNTTVIYTSNIFTDPFFIVETLCIIWFSFELVVRFFACPSKTDFFKNIMNFIDIVAIIPYFITLGTEIAEQEGNQKGEQATSLAILRVIRLVRVFRIFKLSRHSKGLQILGQTLKASMRELGLLIFFLFIGVILFSSAVYFAEAEEAESHFSSIPDAFWWAVVSMTTVGYGDMYPVTIGGKIVGSLCAIAGVLTIALPVPVIVSNFNYFYHRETEGEEQAQLLHVSSPNLASDSDLSRRSSSTISKSEYMEIEEDMNNSIAHYRQANIRTGNCTATDQNCVNKSKLLTDV
Turning to B1, the expression_or_secretion entry is “no change”.
